# Laboratory results: the RNAGym collection of RNA variant scans (doi:10.7554/elife.90254)
# B1: LINE1-full (parent)
# chain: UACGUAGGUGGUUUUCCCCUGAUAGUGCUAAGGGGGCCUGGAAGUUUGGACUGGGCAGAGCUCAACACAGCGUGGCAAAGUGGCUGUGGCUAGACUGCCUCUCUGGAUUCCUCGUCACUCAGCAGGGCAUCUCUGAGAGAAAUGCC
# Variants of: B1
# Experiment: self-cleavage, relative activity (ratio to wild type); higher = more cleavage; in vitro, sequencing; the parent is a self-cleaving ribozyme
row,Variant,self-cleavage
1,U12C,1.29
2,U12G,1.13
3,U12A,1.17
4,G11A A94G,0.08
5,U9G U85C,0.38
6,G11U C118U,0.91
7,U12C A57G,1
8,U12C G72A,1.25
9,U12C U134C,1.3
10,U12C U134G,1.97
11,U12C A64G,0.28
12,U12G A59G,0.23
13,U9G,0.93
14,U12C C146U,1.63
15,U12C C146A,1.45
16,U12A U119C,1.54
17,U9C G139A,1.09
18,U12G A64U,0.83
19,U12A U14A,0.27
20,G10U G97A,0.11
21,G10U A50U,1.99
22,U12G A22G,1.04
23,U9G U13C,0.65
24,U9G U13G,1.31

row,Variant,self-cleavage
1,U9C U23A,1.22
2,G10A U130C,2.22
3,U12A U23A,1.58
4,U12A U23C,1.47
5,U9C U15A,0.5
6,U9C U15C,1.28
7,U9C U15G,1.09
8,U9G U14C,0.68
9,U12C U130C,1.4
10,U12G A65G,0.23
11,U12A A92G,0
12,G10A U15C,1.2
13,U12C U87A,0.06
14,U12C C38U,1.16
15,U9C G122C,0
16,U12C C56A,0.01
17,G10A G36C,1.89
18,U12C A24U,1.18
19,U12C A24C,1.61
20,U12A A107U,1.61
21,U12A U96C,0.28
22,G10A G97A,0.09
23,U12A A138U,1.02
24,G10A U143C,1.4

row,Variant,self-cleavage
1,U12C G82C,2.15
2,U9C U73C,1.27
3,U9C U73A,1.58
4,U9C U119C,1.36
5,U9C U119A,1.36
6,U9G G74A,0.88
7,U12C A42C,0.85
8,U12C A42G,1.48
9,U12C U85A,0.06
10,G10A A78G,0.91
11,G11A U119C,0.93
12,U9C U91C,1.75
13,U9C U91A,0.7
14,U9G A65G,0.25
15,G11C U109C,2.63
16,U12C U96G,0.28
17,U12A A136G,2.03
18,U9G C146U,1.29
19,U12A U100C,1.64
20,U12C A78U,1.52
21,G11C,1.42
22,G11U,1.56
23,G11A,1.31
24,G11A U112C,1.37

row,Variant,self-cleavage
1,G10A G21A,1.14
2,U9G A77G,1.55
3,G11A A43G,1.42
4,U9G A142G,0.95
5,U9C G53A,1.2
6,U12C A79G,1.1
7,G10A U104A,0.91
8,U9G A117G,1.31
9,U9G A117U,1.07
10,G10A A69G,0.64
11,G10U A78G,1.09
12,U12A A30U,1.63
13,G11U A59U,1.02
14,U12C C19U,1.08
15,U12C A31G,1.24
16,G10A A57U,0.07
17,U12C U45A,0.88
18,U12C U45C,0.98
19,U12C U45G,1.35
20,G11C A67G,0.46
21,U12C A107G,0.99
22,G11A G105A,1.27
23,U12A U112C,1.3
24,U12A A117U,1.36

row,Variant,self-cleavage
1,G10C G55A,0.6
2,U12G A67U,0.23
3,U12G A67G,0.53
4,U9C U96G,0
5,U12A G72A,1.41
6,U9C G114A,1.42
7,U12C G144A,1.08
8,U12C A22U,1.68
9,G10A U12G,0.83
10,U12A C18G,1.01
11,U12C G35U,1.53
12,U12A U87A,0.11
13,G11A A124G,0.85
14,G11A A24U,1.72
15,G10U U13C,0.83
16,G10A A141G,0.94
17,G10A U52A,0.97
18,G11A G126A,1.2
19,U9C G55A,0.48
20,U9C G55U,0.37
21,U9G U96C,0
22,U9G G93U,0.05
23,G10A U112C,1.66
24,U9G U102C,1.26

row,Variant,self-cleavage
1,G10A U102C,1.39
2,U12C U23A,1.08
3,G11C A138G,1.22
4,U12C A69U,0.09
5,U12C A69G,0.64
6,G11A A50C,1.24
7,G10A A30G,1.19
8,U9G U47C,0.54
9,U12C G41U,1.25
10,G11C A50G,0.71
11,U12A U20C,1.05
12,U12A A31U,2
13,G11A U15A,0.99
14,U12C A142G,1.13
15,U12A U132C,1.41
16,U12C G49A,1.28
17,U12C U26A,1.03
18,U12C U26C,1.39
19,U12A U143C,1.14
20,U12A U143A,1.28
21,U9C U29C,1.72
22,U12A A64U,0.79
23,U12A A64G,0.27
24,U12C A59G,0.15

row,Variant,self-cleavage
1,U12C G36C,0.95
2,U9C G60C,0.07
3,G11U A42G,1.58
4,U9G A136G,0.68
5,U12C C99G,0.63
6,G10A U96C,0.16
7,G11A C84U,0.15
8,U12C U52G,1.84
9,U12C U52C,1.11
10,U9C G58A,0.04
11,G10A U73A,1.55
12,U12C G135U,1.57
13,U12A A59C,0.61
14,U12A A59G,0.27
15,U12A A22G,1.14
16,U12C A94G,0.37
17,U12C U115G,2.63
18,U12C U115A,0.87
19,U12C A136U,1.43
20,U12A U91C,0.54
21,U12A U91A,0.82
22,G10A U109C,1.08
23,U12C A77U,1.26
24,U12C A77G,1.8

row,Variant,self-cleavage
1,G10A A142G,1.42
2,G11U A129G,0.83
3,U9G U115C,0.29
4,U9C U109A,1.37
5,U9C U109C,0.99
6,U12C G75C,0.66
7,U9C G105A,1.47
8,G10A U100C,0.49
9,U9C U62C,0.18
10,U9C G44A,0.69
11,U9G U119C,1.32
12,U12G A30G,1.2
13,U12G A30U,0.83
14,G11A A69G,0.48
15,U12A U115C,1.21
16,U12A U115A,1.58
17,G10A A117U,1.21
18,U12C U20G,0.78
19,U12C U20A,1.23
20,U12A U13A,1.08
21,G10U C61U,0.05
22,U12A A57G,1.23
23,U12C A124U,1.29
24,U9C U108C,1.54

row,Variant,self-cleavage
1,U12A U85C,0.2
2,G11A A42G,1.43
3,U12C A117G,1.84
4,U9C U134C,1.05
5,U9C U104A,1.4
6,G11A G70U,0.07
7,U12C G34C,1.34
8,U9C U47A,1.18
9,U9C U47C,1.45
10,U12C G106A,1.68
11,G10U A42G,0
12,U9G U100A,0.86
13,U9G U100C,1.61
14,U12C A50U,1.54
15,U12C A50G,1.15
16,U12C U104C,1.56
17,U12C U104A,1.3
18,U12C C17U,1.3
19,U12C U91A,0.64
20,U9C U130A,1.16
21,U9C U130G,0.74
22,U9C U130C,1.3
23,G11A C120U,1.35
24,U9C U112G,2.63

row,Variant,self-cleavage
1,G11A U26C,1.4
2,U12A U45G,1.33
3,U12C A129C,1.99
4,U12C A129U,1.53
5,U12C G83U,1.07
6,U12A U102A,1.79
7,U9G A124U,1.12
8,G11A U109C,1.4
9,U12G A24U,1.5
10,G11A U52C,1.41
11,U9C U26A,1.14
12,U12C U143A,1.25
13,U12C C131U,1.29
14,U12A G53C,1.12
15,U12C U73G,1.29
16,G11A U96C,0.08
17,G11A A138G,1.93
18,U12A A43G,0.85
19,U9C G54A,0.65
20,U12C A138U,1.21
21,U12C C113A,0.64
22,U12C C113U,0.76
23,U12C C116U,0.77
24,U12C U119A,1.78

row,Variant,self-cleavage
1,G10A A65G,0.02
2,G10A A65U,0.14
3,U9C U52G,1.69
4,U12A A42G,1.28
5,U12A A42U,1.75
6,G10A G48U,0.89
7,U9C G82A,2.23
8,U9C G80A,1.65
9,G10U U112C,0.93
10,U12C U132C,1.13
11,U12C U132A,1.31
12,U9C G72A,1.34
13,U9C U81C,1.21
14,U9C U81A,1.95
15,G10A A67G,0.42
16,G10A U20C,1.6
17,U12C U15C,1.05
18,U12C U15A,0.7
19,U9C G75A,1.4
20,G10A U115C,1.51
21,G10A U115A,0.86
22,U12A C66U,0.06
23,U9C U14C,1.18
24,U9G U12A,0.16

row,Variant,self-cleavage
1,G10A A64G,0.22
2,U12A C76U,1.23
3,G11A A77G,1.08
4,U12C U102G,0.88
5,U12C U102C,1.18
6,G11A U29C,1.25
7,G10A C131U,1.19
8,U9C G83U,0.94
9,U12A U62C,0.12
10,U12A U62G,0.06
11,U12A U62A,0.05
12,U12C C120U,1.43
13,U12C C120A,1.47
14,U9C G86A,0.16
15,U12C U46G,0.82
16,U12C U46A,1.24
17,U9C U20C,1.05
18,U9C U20G,1.16
19,U12A C51A,1.16
20,U12A A94U,0.51
21,G10A A31G,0.45
22,G10A U29C,1.12
23,U12C U39G,0.84
24,G10A U119A,0.93

row,Variant,self-cleavage
1,G10A U119C,1
2,U9C U13C,1.19
3,U9C U13A,1.11
4,G11C U20A,0.54
5,U12G A42G,1.42
6,U12C A65U,0.21
7,U12C U14C,1.12
8,G10A G11A,1.61
9,G11A A64C,0.1
10,U9G U112C,0.73
11,U12G A31G,0.87
12,U12C G48A,0.97
13,U12A G70A,0.18
14,U9G A107U,0.46
15,U9G A107G,1.13
16,U9C U45G,1.56
17,U12A C16A,0.97
18,U9C U85A,0.17
19,U9C U85C,0.3
20,G11A U104C,1.59
21,U12A U52G,2.35
22,U12A A124U,1.23
23,U12A A124G,0.87
24,G10U A138U,1

row,Variant,self-cleavage
1,G11A A107G,1.65
2,U9G A138U,1.51
3,G11A G139A,1.91
4,U12G A57U,0.17
5,G10C U96A,0.22
6,G11U A69G,0.44
7,G10A G35A,0.92
8,U12A A141U,0.64
9,G10U U62C,0.06
10,U9C U143A,1.28
11,G10A U134C,1.5
12,U9C G127U,1.45
13,U9C U100C,1.51
14,U9C U100A,1.41
15,G11A U132C,1.03
16,U12C G80A,0.84
17,U12C U47C,1.42
18,U9C U132C,1.47
19,U9C G49U,1.08
20,U12A G21A,1.08
21,G10A A129U,0.66
22,U12C U109A,1.49
